This note sets out measurements from PMC6160764 (Theranostics, 2018).

The assay concerns the target Recombinant human HER3-Fc chimera protein (Homo sapiens, UniProt P21860). In words: BLI. A general note: BLI is a label-free optical method that tracks binding on a fibre tip over time.

Chain of Recombinant human HER3-Fc chimera protein (P21860 20-643, change not shown): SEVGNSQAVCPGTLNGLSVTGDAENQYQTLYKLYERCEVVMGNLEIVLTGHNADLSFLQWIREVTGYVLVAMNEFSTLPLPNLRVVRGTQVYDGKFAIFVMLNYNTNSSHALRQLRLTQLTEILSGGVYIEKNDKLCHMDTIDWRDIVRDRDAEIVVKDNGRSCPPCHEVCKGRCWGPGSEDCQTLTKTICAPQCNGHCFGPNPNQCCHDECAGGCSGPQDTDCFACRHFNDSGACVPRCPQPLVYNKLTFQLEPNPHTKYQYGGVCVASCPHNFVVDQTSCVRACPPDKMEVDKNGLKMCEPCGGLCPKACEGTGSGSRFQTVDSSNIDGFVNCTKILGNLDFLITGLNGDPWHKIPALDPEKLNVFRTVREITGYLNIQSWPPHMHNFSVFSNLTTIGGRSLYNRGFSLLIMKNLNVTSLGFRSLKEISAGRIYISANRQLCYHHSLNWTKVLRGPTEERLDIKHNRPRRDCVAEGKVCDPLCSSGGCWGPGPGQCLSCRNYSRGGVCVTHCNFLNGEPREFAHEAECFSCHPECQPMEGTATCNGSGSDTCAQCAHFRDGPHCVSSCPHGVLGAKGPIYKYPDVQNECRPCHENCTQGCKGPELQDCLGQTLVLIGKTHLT

B1: anti-HER3 scFv (scFv, V domains shown)
VH: not shown
VL: DIQMTQSPSSLSASVGDRVTITCRASQGISNYLAWYQQKPGKAPKLLIYAASSLQSGVPSRFSGSRSGTDFTLTISSLQPEDFATYYCQQYGWLPLTFGQGTKVEIK
On to B1, for which the dissociation constant (Kd) (in general, the equilibrium constant for the complex coming apart) stood at 20 ± 1.4 nM.

B2: IRDye800CW-labeled anti-HER3 scFv (scFv, V domains shown)
VH: not shown
VL: DIQMTQSPSSLSASVGDRVTITCRASQGISNYLAWYQQKPGKAPKLLIYAASSLQSGVPSRFSGSRSGTDFTLTISSLQPEDFATYYCQQYGWLPLTFGQGTKVEIK
With B2, the dissociation constant (Kd) is 29 ± 3.7 nM.
